Read-outs that look alike come from different tables or passages of the source.
Legend:
[1] = target: FcγR2A (CD32aH131) (human) (UniProt P12318); assay: cell binding, FcγR-engineered HEK293 cells
[2] = target: FcγR1 (CD64) (human) (UniProt P12314); assay: cell binding, FcγR-engineered HEK293 cells
[3] = target: FcγR2A (CD32aR131) (human) (UniProt P12318); assay: cell binding, FcγR-engineered HEK293 cells
[4] = target: FcγR3A (CD16aV158) (human) (UniProt P08637); assay: cell binding, FcγR-engineered HEK293 cells
FcγR3A (CD16aV158) (human), sequence (P08637 17-254 F176V): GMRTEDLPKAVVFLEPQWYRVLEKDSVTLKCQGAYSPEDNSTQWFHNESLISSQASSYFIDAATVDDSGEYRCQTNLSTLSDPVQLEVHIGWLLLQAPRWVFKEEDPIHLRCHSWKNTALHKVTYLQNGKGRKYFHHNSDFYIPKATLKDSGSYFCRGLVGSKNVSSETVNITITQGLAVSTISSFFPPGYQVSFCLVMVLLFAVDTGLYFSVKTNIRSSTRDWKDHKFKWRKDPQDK

[5] = target: FcγR3A (CD16aF158) (human) (UniProt P08637); assay: cell binding, FcγR-engineered HEK293 cells
FcγR3A (CD16aF158) (human), sequence (P08637 17-254): as the sequence (P08637 17-254 F176V) above, with V160F counted along it

[6] = target: FcγR2B (human) (UniProt P31994); assay: cell binding, FcγR-engineered HEK293 cells
FcγR2B (human), sequence (P31994 43-310): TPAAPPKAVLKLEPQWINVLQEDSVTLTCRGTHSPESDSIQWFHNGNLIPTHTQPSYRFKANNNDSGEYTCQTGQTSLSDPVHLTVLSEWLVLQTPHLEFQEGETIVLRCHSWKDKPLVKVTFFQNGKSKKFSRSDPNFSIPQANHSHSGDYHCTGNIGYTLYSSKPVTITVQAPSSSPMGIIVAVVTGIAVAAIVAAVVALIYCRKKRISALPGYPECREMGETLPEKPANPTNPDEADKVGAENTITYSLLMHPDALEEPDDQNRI

[7] = target: FcγR3A (CD16aV158) (human) (UniProt P08637); assay: cell binding, FcγR-engineered HEK293 cells; remark: listed apart in the source
[8] = target: FcγR2B (human) (UniProt P31994); assay: cell binding, FcγR-engineered HEK293 cells; remark: listed apart in the source
[9] = target: mouse SIRPα on cells (mouse) (UniProt P97797); assay: flow cytometry on Mouse SIRPα-CHO-K1 cells
mouse SIRPα on cells (mouse), sequence (P97797 32-513): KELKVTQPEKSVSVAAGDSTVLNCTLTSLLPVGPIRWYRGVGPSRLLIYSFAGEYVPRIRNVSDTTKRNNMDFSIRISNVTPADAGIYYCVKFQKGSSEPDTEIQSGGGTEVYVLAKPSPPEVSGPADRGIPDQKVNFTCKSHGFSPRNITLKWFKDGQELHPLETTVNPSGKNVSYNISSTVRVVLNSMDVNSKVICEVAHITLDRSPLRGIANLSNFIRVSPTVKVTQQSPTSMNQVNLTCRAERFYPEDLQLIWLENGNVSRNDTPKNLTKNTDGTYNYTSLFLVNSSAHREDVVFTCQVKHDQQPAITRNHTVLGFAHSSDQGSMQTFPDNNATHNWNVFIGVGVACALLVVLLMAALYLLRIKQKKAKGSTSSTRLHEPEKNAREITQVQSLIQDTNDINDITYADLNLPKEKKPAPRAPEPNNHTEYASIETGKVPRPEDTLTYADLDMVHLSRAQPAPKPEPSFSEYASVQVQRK

[10] = target: rat SIRPα on CHO-K1 cells (rat) (UniProt P97710); assay: flow cytometry on Rat SIRPα-CHO-K1 cells
rat SIRPα on CHO-K1 cells (rat), sequence (P97710 32-509): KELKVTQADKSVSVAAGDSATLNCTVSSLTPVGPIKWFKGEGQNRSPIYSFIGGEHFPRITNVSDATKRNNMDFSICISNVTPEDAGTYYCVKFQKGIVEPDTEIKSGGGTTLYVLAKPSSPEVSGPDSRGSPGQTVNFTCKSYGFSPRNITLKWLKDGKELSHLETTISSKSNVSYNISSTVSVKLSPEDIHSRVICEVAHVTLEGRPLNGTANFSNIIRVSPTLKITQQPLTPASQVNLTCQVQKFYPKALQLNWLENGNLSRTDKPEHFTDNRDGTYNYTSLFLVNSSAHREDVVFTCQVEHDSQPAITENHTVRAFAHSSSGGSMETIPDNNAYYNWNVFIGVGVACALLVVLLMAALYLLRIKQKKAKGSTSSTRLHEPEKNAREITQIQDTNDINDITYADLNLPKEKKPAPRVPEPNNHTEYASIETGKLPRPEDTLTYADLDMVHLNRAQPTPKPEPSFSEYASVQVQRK

FcγR2A (CD32aR131) (human), sequence (P12318 34-317 H167R): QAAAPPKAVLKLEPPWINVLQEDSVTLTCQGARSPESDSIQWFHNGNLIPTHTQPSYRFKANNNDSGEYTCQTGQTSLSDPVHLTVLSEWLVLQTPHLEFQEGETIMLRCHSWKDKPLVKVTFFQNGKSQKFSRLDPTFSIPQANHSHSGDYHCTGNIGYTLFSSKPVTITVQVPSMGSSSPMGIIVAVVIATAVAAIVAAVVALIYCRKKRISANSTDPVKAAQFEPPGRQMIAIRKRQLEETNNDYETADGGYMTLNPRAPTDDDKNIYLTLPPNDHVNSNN
FcγR1 (CD64) (human), sequence (P12314 16-374): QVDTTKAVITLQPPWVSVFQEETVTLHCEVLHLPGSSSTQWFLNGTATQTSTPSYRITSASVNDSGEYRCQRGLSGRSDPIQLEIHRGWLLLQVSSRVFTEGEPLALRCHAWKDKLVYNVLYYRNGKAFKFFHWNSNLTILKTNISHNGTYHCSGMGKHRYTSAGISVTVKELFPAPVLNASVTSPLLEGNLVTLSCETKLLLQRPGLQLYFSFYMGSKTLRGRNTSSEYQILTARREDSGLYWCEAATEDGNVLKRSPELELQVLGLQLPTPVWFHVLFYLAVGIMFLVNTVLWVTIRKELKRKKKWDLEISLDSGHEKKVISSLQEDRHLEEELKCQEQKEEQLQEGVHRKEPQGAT
FcγR2A (CD32aH131) (human), sequence (P12318 34-317): as the sequence (P12318 34-317 H167R) above, with R134H counted along it

## Commercially Available IgG1 (antibody)
[1]
  EC50: 361 nM
[2]
  EC50: 0.83 nM
[3]
  EC50: 188 nM

## Isotype Control-IgG1 (antibody)
[4]
  EC50: 449 nM
[5]
  EC50: 311 nM
[1]
  EC50: 137 nM
[2]
  EC50: 1.18 nM
[6]
  EC50: 1200 nM
[3]
  EC50: 90.2 nM
[7]
  EC50: 127 nM
[8]
  EC50: 2240 nM

## anti-mouse-SIRPα antibody P84
[9]
  EC50 (read off the curve): 2 nM

## anti-rat-SIRPα antibody OX-41
[10]
  EC50 (read off the curve): 2 nM
